The subject of the series is Substrate oligonucleotide SEQ ID NO:30. As to the kind of experiment: RNase testing of commercially obtained reagents, visual detection. The format is biochemical. On the set-up: key: +++ = maximum intensity; ++ = moderate intensity; + = faint but above background; − = negative (identical to background). As to conditions: reagent diluted 1:10 with Assay Buffer, 50 pmoles Substrate SEQ ID NO:30, 60 minutes at 37° C., UV. As to the method: Enzymes were obtained from New England Biolabs (NEB) or Ambion as indicated. Test sample (10 ul) was mixed with 1× buffer (90 ul) for a final volume of 100 ul with 50 pmoles of Substrate SEQ ID NO:30 in 0.5 ml RNase-free microtubes. Assay Mixes were incubated 60 minutes at 37° C. and visually examined under UV excitation for fluorescence emission. After scoring for results, 1 ul (1 ug) of RNase A was added to each tube. The Assay was incubated an additional 5 minutes at 37° C. and re-scored. The addition of RNase A represents a control for the absence of an Assay inhibitor and validates negative results. The “plus RNase A” control was omitted whenever the primary assay was already positive.
Table 9: RNase testing of commercially available reagents. A series of commercially available reagents were diluted 1:10 with Assay Buffer to a final volume of 100 ul. An RNase detection assay was performed using the method of the invention with Substrate oligonucleotide SEQ ID NO:30. Reactions were examined for fluorescence emission by visual inspection using an ultraviolet (UV) light source for excitation. Results were scored as +++, ++, +, or − based on relative signal intensity. As a control, RNase A (1 ug) was added to negative reactions and the Assay was re-scored. ND=not done.

Take “T7 RNA Polymerase: commercial enzyme reagent from Ambion, sold as RNase-free”: the “Assay Results (RNase activity in reagent, relative signal intensity)” value was “−”.
